According to paper doi:10.1101/2020.04.23.057265 (bioRxiv, 2020):

Molecular target: SARS-CoV nsp7L8 fusion protein (SARS-CoV, UniProt P0C6X7)
Experiment: SPR

B1: SARS-CoV nsp12 polymerase subunit (enzyme)
chain: SADASTFLNRVCGVSAARLTPCGTGTSTDVVYRAFDIYNEKVAGFAKFLKTNCCRFQEKDEEGNLLDSYFVVKRHTMSNYQHEETIYNLVKDCPAVAVHDFFKFRVDGDMVPHISRQRLTKYTMADLVYALRHFDEGNCDTLKEILVTYNCCDDDYFNKKDWYDFVENPDILRVYANLGERVRQSLLKTVQFCDAMRDAGIVGVLTLDNQDLNGNWYDFGDFVQVAPGCGVPIVDSYYSLLMPILTLTRALAAESHMDADLAKPLIKWDLLKYDFTEERLCLFDRYFKYWDQTYHPNCINCLDDRCILHCANFNVLFSTVFPPTSFGPLVRKIFVDGVPFVVSTGYHFRELGVVHNQDVNLHSSRLSFKELLVYAADPAMHAASGNLLLDKRTTCFSVAALTNNVAFQTVKPGNFNKDFYDFAVSKGFFKEGSSVELKHFFFAQDGNAAISDYDYYRYNLPTMCDIRQLLFVVEVVDKYFDCYDGGCINANQVIVNNLDKSAGFPFNKWGKARLYYDSMSYEDQDALFAYTKRNVIPTITQMNLKYAISAKNRARTVAGVSICSTMTNRQFHQKLLKSIAATRGATVVIGTSKFYGGWHNMLKTVYSDVETPHLMGWDYPKCDRAMPNMLRIMASLVLARKHNTCCNLSHRFYRLANECAQVLSEMVMCGGSLYVKPGGTSSGDATTAYANSVFNICQAVTANVNALLSTDGNKIADKYVRNLQHRLYECLYRNRDVDHEFVDEFYAYLRKHFSMMILSDDAVVCYNSNYAAQGLVASIKNFKAVLYYQNNVFMSEAKCWTETDLTKGPHEFCSQHTMLVKQGDDYVYLPYPDPSRILGAGCFVDDIVKTDGTLMIERFVSLAIDAYPLTKHPNQEYADVFHLYLQYIRKLHDELTGHMLDMYSVMLTNDNTSRYWEPEFYEAMYTPHTVLQ
B1: binds.
